In the RNAGym collection of RNA variant scans (doi:10.7554/elife.80360):

B1: HDV Ribozyme (parent)
chain: GGCCGGCAUGGUCCCAGCCUCCUCGCUGGCGCCGGCUGGGCAACAUUCCGAGGGGACCGUCCCCUCGGUAAUGGCGAAUGGGACCCA

Variants of: B1
Assay: self-cleavage, relative activity (ratio to wild type); higher = more cleavage; co-transcriptional
C24A A45C gave a self-cleavage of 0.19.
Work on C24A A51G yielded a self-cleavage of 0.665.
Variant C24A A77C has a self-cleavage of 0.185.
Variant C24A A78U has a self-cleavage of 0.0923.
In the case of C24A A83C, the self-cleavage is reported as 0.192.
C24A A83U gave a self-cleavage of 0.415.
C24A A87G gave a self-cleavage of 0.7.
In the case of C24A A87U, the self-cleavage is reported as 0.749.
With C24A C26A the self-cleavage was 0.743.
Work on C24A C48A yielded a self-cleavage of 0.717.
C24A C49G gave a self-cleavage of 0.787.
In the case of C24A C57U, the self-cleavage is reported as 0.727.
For C24A C62G, the self-cleavage was 0.554.
With C24A C66A the self-cleavage was 0.764.
In the case of C24A C75G, the self-cleavage is reported as 0.0898.
C24A C75U showed a self-cleavage of 0.169.
For C24A C84U, the self-cleavage was 0.587.
For C24A C86U, the self-cleavage was 0.633.
For C24A G25C, the self-cleavage was 0.208.
For C24A G25U, the self-cleavage was 0.277.
C24A G28A showed a self-cleavage of 0.208.
Variant C24A G28U has a self-cleavage of 0.0386.
In the case of C24A G29C, the self-cleavage is reported as 0.136.
Work on C24A G34U yielded a self-cleavage of 0.0831.
C24A G35A gave a self-cleavage of 0.212.
C24A G38U gave a self-cleavage of 0.0791.
For C24A G40U, the self-cleavage was 0.41.
Variant C24A G50C has a self-cleavage of 0.855.
Work on C24A G52U yielded a self-cleavage of 0.769.
With C24A G53U the self-cleavage was 0.858.
C24A G55U showed a self-cleavage of 0.908.
C24A G59C gave a self-cleavage of 0.8.
Variant C24A G67C has a self-cleavage of 0.739.
For C24A G68A, the self-cleavage was 0.678.
Variant C24A G81A has a self-cleavage of 0.0852.
Variant C24A G81C has a self-cleavage of 0.17.
With C24A G82A the self-cleavage was 0.223.
Work on C24A U46C yielded a self-cleavage of 0.269.
Variant C24A U46G has a self-cleavage of 0.554.
For C24A U47C, the self-cleavage was 0.508.
For C24A U47G, the self-cleavage was 0.434.
For C24A U65C, the self-cleavage was 0.658.
C24A U72A showed a self-cleavage of 0.271.
Variant C24A U79A has a self-cleavage of 0.227.
C24G A42C showed a self-cleavage of 0.101.
For C24G A51C, the self-cleavage was 0.
C24G A56C showed a self-cleavage of 0.0723.
With C24G A56G the self-cleavage was 0.0875.
For C24G A78G, the self-cleavage was 0.173.
Variant C24G A83G has a self-cleavage of 0.153.
For C24G C33U, the self-cleavage was 0.104.
In the case of C24G C36A, the self-cleavage is reported as 0.
Variant C24G C36G has a self-cleavage of 0.0923.
C24G C41G gave a self-cleavage of 0.
C24G C41U gave a self-cleavage of 0.102.
C24G C44G gave a self-cleavage of 0.125.
In the case of C24G C49U, the self-cleavage is reported as 0.115.
C24G C57G gave a self-cleavage of 0.192.
C24G C63A gave a self-cleavage of 0.18.
For C24G C63U, the self-cleavage was 0.0875.
With C24G C66A the self-cleavage was 0.0723.
In the case of C24G C84G, the self-cleavage is reported as 0.0811.
Work on C24G C85G yielded a self-cleavage of 0.125.
With C24G G35U the self-cleavage was 0.
For C24G G38U, the self-cleavage was 0.0268.
In the case of C24G G39A, the self-cleavage is reported as 0.0845.
Work on C24G G39C yielded a self-cleavage of 0.18.
In the case of C24G G50A, the self-cleavage is reported as 0.104.
With C24G G52A the self-cleavage was 0.123.
With C24G G54A the self-cleavage was 0.
Work on C24G G54C yielded a self-cleavage of 0.0511.
C24G G54U showed a self-cleavage of 0.183.
C24G G67U gave a self-cleavage of 0.135.
With C24G G73C the self-cleavage was 0.107.
With C24G G76A the self-cleavage was 0.101.
For C24G G76U, the self-cleavage was 0.339.
C24G G80A showed a self-cleavage of 0.0791.
C24G G80U gave a self-cleavage of 0.0746.
Variant C24G G81A has a self-cleavage of 0.0332.
Variant C24G U27A has a self-cleavage of 0.0437.
Work on C24G U37C yielded a self-cleavage of 0.119.
C24G U47C gave a self-cleavage of 0.0462.
In the case of C24G U65C, the self-cleavage is reported as 0.224.
For C24G U69C, the self-cleavage was 0.0354.
C24G U69G gave a self-cleavage of 0.332.
With C24G U79C the self-cleavage was 0.165.
C24G U79G showed a self-cleavage of 0.
With C24U A43G the self-cleavage was 0.
C24U A43U gave a self-cleavage of 0.182.
For C24U A45G, the self-cleavage was 0.373.
With C24U A51C the self-cleavage was 0.767.
C24U A51U gave a self-cleavage of 0.681.
C24U A70U showed a self-cleavage of 0.598.
C24U A71C showed a self-cleavage of 0.453.
In the case of C24U A78U, the self-cleavage is reported as 0.172.
C24U A83C gave a self-cleavage of 0.219.
In the case of C24U A83G, the self-cleavage is reported as 0.394.
For C24U A83U, the self-cleavage was 0.198.
With C24U A87G the self-cleavage was 0.55.
For C24U C32G, the self-cleavage was 0.
C24U C33A gave a self-cleavage of 0.0845.
C24U C33G showed a self-cleavage of 0.166.
For C24U C41A, the self-cleavage was 0.608.
Variant C24U C44G has a self-cleavage of 0.119.
Variant C24U C48A has a self-cleavage of 0.692.
For C24U C48U, the self-cleavage was 0.604.
For C24U C49U, the self-cleavage was 0.758.
In the case of C24U C61G, the self-cleavage is reported as 0.745.
Variant C24U C63A has a self-cleavage of 0.753.
Work on C24U C64G yielded a self-cleavage of 0.779.
With C24U C66A the self-cleavage was 0.525.
C24U C75U showed a self-cleavage of 0.197.
C24U C85A gave a self-cleavage of 0.831.
C24U C85G gave a self-cleavage of 0.629.
Work on C24U C85U yielded a self-cleavage of 0.718.
In the case of C24U G25A, the self-cleavage is reported as 0.181.
C24U G25C showed a self-cleavage of 0.125.
Work on C24U G29A yielded a self-cleavage of 0.0415.
C24U G31U gave a self-cleavage of 0.0228.
Variant C24U G34U has a self-cleavage of 0.17.
In the case of C24U G39A, the self-cleavage is reported as 0.257.
For C24U G39C, the self-cleavage was 0.0302.
For C24U G39U, the self-cleavage was 0.111.
In the case of C24U G52C, the self-cleavage is reported as 0.884.
Work on C24U G52U yielded a self-cleavage of 0.694.
Variant C24U G55C has a self-cleavage of 0.729.
In the case of C24U G68A, the self-cleavage is reported as 0.831.
C24U G68C gave a self-cleavage of 0.456.
In the case of C24U G68U, the self-cleavage is reported as 0.891.
In the case of C24U G73U, the self-cleavage is reported as 0.122.
In the case of C24U G76U, the self-cleavage is reported as 0.917.
Variant C24U G80C has a self-cleavage of 0.179.
In the case of C24U U37A, the self-cleavage is reported as 0.18.
In the case of C24U U37C, the self-cleavage is reported as 0.753.
C24U U47C showed a self-cleavage of 0.739.
For C24U U60A, the self-cleavage was 0.627.
In the case of C24U U60C, the self-cleavage is reported as 0.752.
With C24U U72G the self-cleavage was 0.323.
With C24U U79C the self-cleavage was 0.161.
Work on G25A A42U yielded a self-cleavage of 0.
G25A A43U gave a self-cleavage of 0.0437.
For G25A A45C, the self-cleavage was 0.227.
G25A A45U showed a self-cleavage of 0.0489.
Variant G25A A51G has a self-cleavage of 0.269.
In the case of G25A A77C, the self-cleavage is reported as 0.0978.
Variant G25A A78G has a self-cleavage of 0.0339.
In the case of G25A A83U, the self-cleavage is reported as 0.0678.
For G25A C30U, the self-cleavage was 0.143.
G25A C32U showed a self-cleavage of 0.169.
Work on G25A C41U yielded a self-cleavage of 0.155.
G25A C44A gave a self-cleavage of 0.
In the case of G25A C44U, the self-cleavage is reported as 0.107.
In the case of G25A C48U, the self-cleavage is reported as 0.264.
G25A C58A showed a self-cleavage of 0.237.
G25A C58G showed a self-cleavage of 0.111.
For G25A C61A, the self-cleavage was 0.201.
G25A C62G showed a self-cleavage of 0.151.
G25A C62U gave a self-cleavage of 0.182.
G25A C63U gave a self-cleavage of 0.289.
G25A C64G gave a self-cleavage of 0.13.
Work on G25A C64U yielded a self-cleavage of 0.204.
G25A C66A showed a self-cleavage of 0.287.
G25A C84A showed a self-cleavage of 0.175.
For G25A C86A, the self-cleavage was 0.104.
In the case of G25A C86G, the self-cleavage is reported as 0.122.
With G25A G28A the self-cleavage was 0.0482.
G25A G28C gave a self-cleavage of 0.231.
